# Laboratory results published in patent US9266930.
# Read-outs that look alike come from different tables or passages of the source.
# T1: HLA-DR7 (DRB1*0701) (human)
# T1 chain 1: not shown
# T1 chain 2: not shown
# T2: HLA-DR5w12 (DRB1*1201) (human)
# T2 chain 1: not shown
# T2 chain 2: not shown
# T3: HLA-DR8w2 (DRB1*0802) (human)
# T3 chain 1: not shown
# T3 chain 2: not shown
# Key:
# [1] = biological target: HLA-A*1101 (purified HLA class I molecule) (human); assay: competition with a 125I-labelled probe peptide for purified HLA-A*1101
# HLA-A*1101 (human) [2] = conditions: for binding affinity ratio (relative to standard peptide): scale: ratio
# [3] = biological target: HLA-DR5w11 (DRB1*1101) (human)
# [4] = biological target: HLA-DR1 (DRB1*0101) (human)
# [5] = biological target: HLA-DR2w2β2 (DRB5*0101) (human)
# HLA-A*1101 (human) [6] = assay: competition with 125I-labelled standard peptide for purified HLA, gel filtration
# [7] = biological target: HLA-DR4w15 (DRB1*0405) (human)
# [8] = biological target: T1, HLA-DR7 (DRB1*0701) (human)
# [9] = biological target: T2, HLA-DR5w12 (DRB1*1201) (human)
# [10] = biological target: T3, HLA-DR8w2 (DRB1*0802) (human)
binder,measurement,setting,value
"QSQDNNGNRH (modifications not checked) [… (Pf SSP2 436, 10-mer)]",binding affinity ratio (IC50 of standard peptide / IC50 of test peptide),[1],0.0002
"KGTGSGVSSK (modifications not checked) [… (P. falciparum EXP, position 27)]",binding affinity ratio (IC50 of standard peptide / IC50 of test peptide),HLA-A*0301 (human),0.0005
QDSLKESRK (modifications not checked) [… (Pf SSP2 169)],binding affinity ratio (IC50 of standard peptide / IC50 of test peptide),HLA-A*1101 (human) [2],0.0002
"LLGGVGLVL (modifications not checked) [… (EXP position 92, 9 amino acids)]",binding affinity ratio (IC50 of standard peptide / IC50 of test peptide),HLA-A*0201 (Human),0.0038
"WSPCSVTCGK (modifications not checked) [… (Pf SSP2 250, 10-mer)]",binding affinity ratio (IC50 of standard peptide / IC50 of test peptide),[1],0.0002
"LIFFDLFLV (modifications not checked) [… (Pf SSP2 15, 9-mer A02 supermotif peptide)]",binding affinity ratio (IC50 of standard peptide / IC50 of test peptide),HLA-A*0201 (Human),0.089
"RSRKREILH (modifications not checked) [… (Pf SSP2 262, 9-mer)]",binding affinity ratio (IC50 of standard peptide / IC50 of test peptide),[1],0.0002
NSEDRETRPH (modifications not checked) [… (Pf SSP2 448)],binding affinity ratio (IC50 of standard peptide / IC50 of test peptide),HLA-A*1101 (human) [2],0.0002
"IFNKESLAEK (modifications not checked) [… (P. falciparum EXP, position 15)]",binding affinity ratio (IC50 of standard peptide / IC50 of test peptide),HLA-A*0301 (human),0.0005
AGGIAGGLALLACAG (modifications not checked),binding affinity ratio (IC50 of standard peptide / IC50 of test peptide),[3],-0.0002
"HDLISDMIK (modifications not checked) [… (P. falciparum EXP, position 51), listing 1 of 2 here]",binding affinity ratio (IC50 of standard peptide / IC50 of test peptide),HLA-A*0301 (human),0.0001
SAWENVKNV (modifications not checked) [SSP2 218 …],binding affinity ratio (IC50 of standard peptide / IC50 of test peptide),HLA-A*0201 (Human),0.0019
"SLLSTNLPY (modifications not checked) [… (Pf SSP2 120, 9-mer)]",binding affinity ratio (IC50 of standard peptide / IC50 of test peptide),[1],0.0046
"GVSSKKKNK (modifications not checked) [… (P. falciparum EXP, position 32), listing 1 of 2 here]",binding affinity ratio (IC50 of standard peptide / IC50 of test peptide),HLA-A*0301 (human),0.0001
"LLMDCSGSI (modifications not checked) [… (Pf SSP2 51, 9-mer A02 supermotif peptide)]",binding affinity ratio (IC50 of standard peptide / IC50 of test peptide),HLA-A*0201 (Human),0.046
"HDLISDMIKK (modifications not checked) [… (P. falciparum EXP, position 51), listing 1 of 2 here]",binding affinity ratio (IC50 of standard peptide / IC50 of test peptide),HLA-A*0301 (human),0.0009
VIGPFMKAV (modifications not checked) [SSP2 226 …],binding affinity ratio (IC50 of standard peptide / IC50 of test peptide),HLA-A*0201 (Human),0.0004
PSPNPEEGK (modifications not checked) [… (Pf SSP2 328)],binding affinity ratio (IC50 of standard peptide / IC50 of test peptide),HLA-A*1101 (human) [2],0.0002
"VGCHPSDGK (modifications not checked) [… (Pf SSP2 203, 9-mer)]",binding affinity ratio (IC50 of standard peptide / IC50 of test peptide),[1],0.0003
"HDLISDMIKK (modifications not checked) [Pf EXP peptide … (position 51), listing 2 of 2 here]",binding affinity ratio (relative to standard peptide),HLA-A*1101 (human) [2],0.0002
VVILTDGIPDSIQDS (modifications not checked),binding affinity ratio (IC50 of standard peptide / IC50 of test peptide),[4],0.0001
same,binding affinity ratio (IC50 of standard peptide / IC50 of test peptide),[5],-0.0006
same,binding affinity ratio (IC50 of standard peptide / IC50 of test peptide),[3],-0.0004
"GLALLACAGL (modifications not checked) [… (Pf SSP2 507, 10-mer)]",binding affinity ratio (IC50 of standard peptide / IC50 of test peptide),HLA-A*0201 (Human),0.017
IFNKESLAEK (modifications not checked) [Pf EXP peptide … (position 15)],binding affinity ratio (relative to standard peptide),HLA-A*1101 (human) [2],0.0003
"GIAGGLALL (modifications not checked) [… (Pf SSP2 503, 9-mer)]",binding affinity ratio (IC50 of standard peptide / IC50 of test peptide),HLA-A*0201 (Human),0.0022
SIQDSLKESR (modifications not checked),binding affinity ratio (IC50 of standard peptide / IC50 of test peptide),HLA-A*1101 (human) [6],0.0009
AVPLAMKLIQQLNLN (modifications not checked),binding affinity ratio (IC50 of standard peptide / IC50 of test peptide),[5],-0.0006
same,binding affinity ratio (IC50 of standard peptide / IC50 of test peptide),[3],0.0002
KYLVIVFLIFFDLFL (modifications not checked),binding affinity ratio (IC50 of standard peptide / IC50 of test peptide),[5],-0.002
same,binding affinity ratio (IC50 of standard peptide / IC50 of test peptide),[3],-0.0009
same,binding affinity ratio (IC50 of standard peptide / IC50 of test peptide),[7],-0.003
"YADSAWENVK (modifications not checked) [… (Pf SSP2 215, 10-mer)]",binding affinity ratio (IC50 of standard peptide / IC50 of test peptide),[1],0.0002
"IVFLIFFDL (modifications not checked) [… (Pf SSP2 12, 9-mer A02 supermotif peptide)]",binding affinity ratio (IC50 of standard peptide / IC50 of test peptide),HLA-A*0201 (Human),0.0024
PDSIQDSLK (modifications not checked) [… (Pf SSP2 165)],binding affinity ratio (IC50 of standard peptide / IC50 of test peptide),HLA-A*1101 (human) [2],0.0002
QCEEERCPPK (modifications not checked) [… (Pf SSP2 280)],binding affinity ratio (IC50 of standard peptide / IC50 of test peptide),HLA-A*1101 (human) [2],0.0002
SVTCGKGTR (modifications not checked),binding affinity ratio (IC50 of standard peptide / IC50 of test peptide),HLA-A*1101 (human) [6],0.0009
"GVSSKKKNKK (modifications not checked) [… (P. falciparum EXP, position 32), listing 1 of 2 here]",binding affinity ratio (IC50 of standard peptide / IC50 of test peptide),HLA-A*0301 (human),0.0011
"GVSSKKKNKK (modifications not checked) [Pf EXP peptide … (position 32), listing 2 of 2 here]",binding affinity ratio (relative to standard peptide),HLA-A*1101 (human) [2],0.0002
VKYLVIVFLIFFDLF (modifications not checked) [… (Pf SSP2 7)],binding affinity ratio (IC50 of standard peptide / IC50 of test peptide),[8],0.001
"QVRKHLNDR (modifications not checked) [… (Pf SSP2 139, 9-mer)]",binding affinity ratio (IC50 of standard peptide / IC50 of test peptide),[1],0.0002
"SIQDSLKESR (modifications not checked) [… (Pf SSP2 167, 10-mer)]",binding affinity ratio (IC50 of standard peptide / IC50 of test peptide),[1],0.0009
KGTGSGVSSK (modifications not checked) [Pf EXP peptide … (position 27)],binding affinity ratio (relative to standard peptide),HLA-A*1101 (human) [2],0.0009
MKILSVFFLALFFII (modifications not checked),binding affinity ratio (IC50 of standard peptide / IC50 of test peptide),[5],-0.0021
same,binding affinity ratio (IC50 of standard peptide / IC50 of test peptide),[3],-0.001
QSQDNNGNR (modifications not checked) [… (Pf SSP2 436)],binding affinity ratio (IC50 of standard peptide / IC50 of test peptide),HLA-A*1101 (human) [2],0.0002
"HDLISDMIK (modifications not checked) [Pf EXP peptide … (position 51), listing 2 of 2 here]",binding affinity ratio (relative to standard peptide),HLA-A*1101 (human) [2],0.0002
"GVSSKKKNK (modifications not checked) [Pf EXP peptide … (position 32), listing 2 of 2 here]",binding affinity ratio (relative to standard peptide),HLA-A*1101 (human) [2],0.0002
TVLLGGVGLVLYNTE (modifications not checked),binding affinity ratio (IC50 of standard peptide / IC50 of test peptide),[4],0.49
same,binding affinity ratio (IC50 of standard peptide / IC50 of test peptide),[5],-0.0005
same,binding affinity ratio (IC50 of standard peptide / IC50 of test peptide),[3],-0.0002
same,binding affinity ratio (IC50 of standard peptide / IC50 of test peptide),[7],-0.0009
CVEVEKTASCGVWDE (modifications not checked) [… (Pf SSP2 235)],binding affinity ratio (IC50 of standard peptide / IC50 of test peptide),[8],0.0095
same,binding affinity ratio (IC50 of standard peptide / IC50 of test peptide),[9],0.0001
same,binding affinity ratio (IC50 of standard peptide / IC50 of test peptide),[10],0.0005
LIFFDLFLVNGRDVQ (modifications not checked) [… (Pf SSP2 15)],binding affinity ratio (IC50 of standard peptide / IC50 of test peptide),[8],0.047
"VVPGAATPY (modifications not checked) [… (Pf SSP2 521, 9-mer)]",binding affinity ratio (IC50 of standard peptide / IC50 of test peptide),[1],0.0002
YLLMDCSGSI (modifications not checked) [SSP2 50 …],binding affinity ratio (IC50 of standard peptide / IC50 of test peptide),HLA-A*0201 (Human),0.17
WSPCSVTCGK (modifications not checked),binding affinity ratio (IC50 of standard peptide / IC50 of test peptide),HLA-A*1101 (human) [6],0.0002
QGINVAFNR (modifications not checked) [… (Pf SSP2 192)],binding affinity ratio (IC50 of standard peptide / IC50 of test peptide),HLA-A*1101 (human) [2],0.078
"SIRRHNWVNH (modifications not checked) [… (Pf SSP2 58, 10-mer)]",binding affinity ratio (IC50 of standard peptide / IC50 of test peptide),[1],0.0002
"SVFFLALFFI (modifications not checked) [… (P. falciparum EXP-1, position 5, 10 amino acids)]",binding affinity ratio (IC50 of standard peptide / IC50 of test peptide),HLA-A*0201 (Human),0.0017
VIVFLIFFDL (modifications not checked) [SSP2 11 …],binding affinity ratio (IC50 of standard peptide / IC50 of test peptide),HLA-A*0201 (Human),0.0038
"VLLGGVGLV (modifications not checked) [… (P. falciparum EXP-1, position 91, 9 amino acids)]",binding affinity ratio (IC50 of standard peptide / IC50 of test peptide),HLA-A*0201 (Human),0.029
"HLGNVKYLV (modifications not checked) [… (Pf SSP2 3, 9-mer)]",binding affinity ratio (IC50 of standard peptide / IC50 of test peptide),HLA-A*0201 (Human),0.0017
